Measurements taken from paper PMC7463553, “Thiol Redox Regulation of Plant β-Carbonic Anhydrase” (Biomolecules, 2020).

Biological target: the molecule itself
Assay: dynamic light scattering; 320 µM βCA1 after addition of 20 mM DTT or in the presence of 500 µM H2O2; 50 mM Na-phosphate pH 8; 25 °C; intensity converted to volume percentage

B1: β-carbonic anhydrase 1 (βCA1) from Arabidopsis thaliana (enzyme, UniProt P27140 114-347, looked up)
chain: ALQTGTSSDKKAFDPVETIKQGFIKFKKEKYETNPALYGELAKGQSPKYMVFACSDSRVCPSHVLDFQPGDAFVVRNIANMVPPFDKVKYGGVGAAIEYAVLHLKVENIVVIGHSACGGIKGLMSFPLDGNNSTDFIEDWVKICLPAKSKVISELGDSAFEDQCGRCEREAVNVSLANLLTYPFVREGLVKGTLALKGGYYDFVKGAFELWGLEFGLSETSSVKDVATILHWKL
notes: β-carbonic anhydrase 1 (βCA1, βCA1.1), Arabidopsis thaliana, UniProt P27140, At3g01500; The protein was analysed both reduced (DTT) and oxidised (H2O2); also called βCA1.1; chloroplast βCA; source: E. coli NiCo21 (DE3), purified (passage through a chitin column, Ni-NTA beads, dialysis)
stoichiometry N: 2
